“And” between values parts separate entries of the source, which are not always exact repeats. Identical values can stand only once.

Here are results for eight molecules from paper PMC7356358, “Comparative Characterization of Plasmodium falciparum Hsp70-1 Relative to E. coli DnaK Reveals the Functional Specificity of the Parasite Chaperone” (Biomolecules, 2020).

The chains are these.
B1: Plasmodium falciparum Hsp40 (natural protein, UniProt Q8IL88 1-424, looked up)
chain: MFFSSGFPFDSMGGQQARRKREVNNNKFYEVLNLKKNCTTDEVKKAYRKLAIIHHPDKGGDPEKFKEISRAYEVLSDEEKRKLYDEYGEEGLENGEQPADATDLFDFILNAGKGKKKRGEDIVSEVKVTLEQLYNGATKKLAISKDIICTNCEGHGGPKDAKVDCKQCNGRGTKTYMRYHSSVLHQTEVTCNTCRGKGKIFNEKDKCANCKGMCVLKTRKIIEVYIPKGAPNKHKIVFNGEADEKPNVITGNLVVILNEKQHPVFRREGIDLFMNYKISLYESLTGFVAEVTHLDERKILVNCTNSGFIRHGDIREVLDEGMPTYKDPFKKGNLYITFEVEYPMDLIITNENKEVLKILKKQNEVEKKYDLENSELEVVSCSPVDKEYIKVRVTKQQQQQQQEAYDDEDHQPEMEGGRVACAQQ
notes: P. falciparum type I Hsp40, cytosolic co-chaperone of PfHsp70-1; PlasmoDB PF3D7_1437900; codon harmonized gene cloned into pQE30 (BamHI, HindIII); also called PfHsp40
B2: peptide NRLLTG (peptide)
peptide: NRLLTG
notes: canonical model Hsp70 peptide substrate; source: synthetic peptide
B3: peptide GFRNNNMYRF (peptide)
peptide: GFRNNNMYRF
notes: source: synthetic peptide
B4: peptide GFRVVLMYRF (peptide)
peptide: GFRVVLMYRF
notes: as for B2
B5: peptide ALLLMYRR (peptide)
peptide: ALLLMYRR
notes: as for B2
B6: peptide ANNNMYRR (peptide)
peptide: ANNNMYRR
notes: source: synthetic peptide
B7: Plasmodium falciparum Hsp70-1 (natural protein)
chain: not shown
notes: Plasmodium falciparum Hsp70-1, cytosolic Hsp70; PlasmoDB PF3D7_0818900; expressed from pQE30/PfHsp70-1; also called PfHsp70-1; PfHsp70
B8: peptide NRNNTG (peptide)
peptide: NRNNTG
notes: NRLLTG with the middle residues substituted by asparagine; source: synthetic peptide

Series [1] addresses B7. The experiment in a line: SPR; MP-SPR (BioNavis); Hsp70 immobilised (1.0 μg/mL), PfHsp40 as analyte at 0-2000 nM; with 5 mM ADP; global fit. As to conditions: both partners purified. For orientation: In SPR one partner is held on a chip, and binding of the other changes the refractive index at the surface.
Series [2] addresses B7. As to the kind of experiment: SPR; MP-SPR (BioNavis); Hsp70 immobilised (1.0 μg/mL), PfHsp40 as analyte at 0-2000 nM; with 5 mM ATP; global fit. Conditions: both partners purified.
Series [3] has as its target T1, Escherichia coli DnaK (Escherichia coli, UniProt P0A6Y8 1-638).
T1 construct: E. coli Hsp70 (DnaK); expressed from pQE30/DnaK; also called E. coli Hsp70
As to the kind of experiment: SPR. As to conditions: both partners purified.

Series [4] deals with B7. The experiment in a line: SPR; MP-SPR (BioNavis); Hsp70 immobilised (1.0 μg/mL), PfHsp40 as analyte at 0-2000 nM; no nucleotide; global fit. Conditions: both partners purified.
For series [5], the target named is T1, Escherichia coli DnaK. The experiment in a line: SPR; MP-SPR; Hsp70 immobilised, peptide as analyte at 0-2000 nM, 100 µL/min; with 5 mM ADP. Conditions: both partners purified.
The target in series [6] is B7. The experiment in a line: SPR. As to conditions: both partners purified.
In series [7] the target is T1, Escherichia coli DnaK. The experiment in a line: SPR; MP-SPR; Hsp70 immobilised, peptide as analyte at 0-2000 nM, 100 µL/min; with 5 mM ATP (hydrolysable). As to conditions: both partners purified.
Series [8] deals with the molecule itself. The experiment in a line: SPR; MP-SPR (BioNavis); Hsp70 immobilised on a CMD3D 500L chip, the same Hsp70 as analyte at 0-2000 nM; with 5 mM ADP; self-association, step not told; global fit.
Series [9] deals with the molecule itself. The experiment in a line: SPR; MP-SPR (BioNavis); Hsp70 immobilised on a CMD3D 500L chip, the same Hsp70 as analyte at 0-2000 nM; no nucleotide; self-association, step not told; global fit.
Series [10] deals with the molecule itself. As to the kind of experiment: SPR; MP-SPR (BioNavis); Hsp70 immobilised on a CMD3D 500L chip, the same Hsp70 as analyte at 0-2000 nM; with 5 mM ATP; self-association, step not told; global fit.

A word on the Kd: it is the free concentration of one partner at which half of the binding sites on the other are occupied at equilibrium, for simple one-to-one binding. What is called kon is a measure of how fast the partners come together. A low value points to slow association. B1: the Kd was determined as 9.98 µM in [1], 208 nM in series [2] and 18.8 µM in series [4]. Besides, the kon in series [1] is 1530 M⁻¹ s⁻¹; in series [2] it was 181 M⁻¹ s⁻¹; in series [3], 122 M⁻¹ s⁻¹ and 116 M⁻¹ s⁻¹ and 112 M⁻¹ s⁻¹; in series [4] it was 1330 M⁻¹ s⁻¹.

Consider B2, for which the binding result in series [5] and in series [6] was “binds” each time.

For B3, the binding result in series [7] and in series [6] was “binds” throughout.

Consider B4, for which the binding result in [7] and in series [6] was “binds” in each case.

As for B5, the binding result in series [5] and in [6] was “binds” in each case.

Regarding B6, the binding result in series [7] and in [6] was “binds” each time.

For the molecule B7, the Kd in [8] came to 1710 nM; in series [9], 2390 nM; in series [10], 528 nM. In addition, the kon in series [8] worked out at 100 M⁻¹ s⁻¹; in series [9] it was 8510 M⁻¹ s⁻¹; in series [10] it was 21400 M⁻¹ s⁻¹.

As for B8, the binding result in series [5] and in [6] was “binds” in each case.
